Data from patent publication WO2024096022A1 (dated 2024).

T1: human AdipoR1 protein (human, UniProt Q96A54 1-375)
T1 construct: Stably expressed on CHO cells together with EGFP as a separate expression marker; also called adiponectin receptor 1; hAdipoR1
T1 sequence: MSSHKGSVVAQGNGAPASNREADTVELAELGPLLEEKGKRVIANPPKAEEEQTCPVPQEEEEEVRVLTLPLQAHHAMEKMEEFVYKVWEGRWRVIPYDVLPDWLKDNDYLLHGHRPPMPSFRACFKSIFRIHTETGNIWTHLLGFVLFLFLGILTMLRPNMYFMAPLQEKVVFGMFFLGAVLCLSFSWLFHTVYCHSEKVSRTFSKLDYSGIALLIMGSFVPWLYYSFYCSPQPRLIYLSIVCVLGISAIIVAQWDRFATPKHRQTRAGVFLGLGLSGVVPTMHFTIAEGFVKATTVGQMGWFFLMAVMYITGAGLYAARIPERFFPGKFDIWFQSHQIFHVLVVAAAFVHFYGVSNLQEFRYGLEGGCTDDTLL

T2: human AdipoR2 protein (human, UniProt Q86V24 1-386)
T2 construct: Stably expressed on CHO cells together with EGFP as a separate expression marker; also called adiponectin receptor 2; hAdipoR2
T2 sequence: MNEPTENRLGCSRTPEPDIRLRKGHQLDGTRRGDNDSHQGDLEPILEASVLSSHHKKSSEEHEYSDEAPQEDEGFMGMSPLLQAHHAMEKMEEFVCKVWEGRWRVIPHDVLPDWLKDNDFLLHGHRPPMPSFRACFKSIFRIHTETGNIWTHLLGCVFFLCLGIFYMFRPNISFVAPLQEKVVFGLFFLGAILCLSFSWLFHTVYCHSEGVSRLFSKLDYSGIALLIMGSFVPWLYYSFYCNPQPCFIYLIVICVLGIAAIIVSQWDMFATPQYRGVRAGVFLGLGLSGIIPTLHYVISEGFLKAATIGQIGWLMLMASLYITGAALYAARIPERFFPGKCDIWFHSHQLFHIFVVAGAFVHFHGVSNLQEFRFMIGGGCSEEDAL

B1: mouse-human chimeric antibody WT (antibody, V domains shown)
VH: DVKLVESGEGLVKPGGSLKLSCAASGFTFSSYAMSWVRQTPEKRLEWVAYISSGGDYIYYADTVKGRFTISRDNARNTLYLQMSSLKSEDTAMYYCTRALEAMDYWGQGTSVTVSS
VL: ETTVTQSPASLSMAIGEKVTIRCITSTDIDDDMNWYQQKPGEPPKLLISEGNTLRPGVPSRFSSSGYGTDFVFTIENMLSEDVADYYCLQSDNLPFTFGSGTKLEIK
B2: fluorescently labeled human plasma-derived adiponectin (ligand, UniProt Q15848 19-244, looked up)
chain: ETTTQGPGVLLPLPKGACTGWMAGIPGHPGHNGAPGRDGRDGTPGEKGEKGDPGLIGPKGDIGETGVPGAEGPRGFPGIQGRKGEPGEGAYVYRSAFSVGLETYVTIPNMPIRFTKIFYNQQNHYDGSTGKFHCNIPGLYYFAYHITVYMKDVKVSLFKKDKAMLFTYDQYQENNVDQASGSVLLHLEVGDQVWLQVYGEGERNGLYADNDNDSTFTGFLLYHDTN
modifications: fluorescent label (site not stated)

Key:
human AdipoR1 protein = target: T1, human AdipoR1 protein; assay: flow cytometry on human AdipoR1-expressing CHO cells against parental CHO cells
human AdipoR2 protein [1] = target: T2, human AdipoR2 protein; assay: flow cytometry on human AdipoR2-expressing CHO cells against parental CHO cells
human AdipoR2 protein [2] = target: T2, human AdipoR2 protein; assay: fluorescent ligand binding to cells stably expressing human AdipoR2 (8200 Cellular Detection System)

Row | Binder | binding result (human AdipoR1 protein) | binding result (human AdipoR2 protein [1]) | binding result (human AdipoR2 protein [2])
1 | B1 | binds | binds | –
2 | B2 | – | – | binds
